2 substances from publication PMC5605508 can be followed below.

In general, Kd refers to the constant that tells how readily two partners part at equilibrium.

Series [1] deals with wtSSB (Escherichia coli) (UniProt P0AGE0). Description: SPR. The settings on record: 10 mM Mg acetate, 3 mM K glutamate, pH 7.5, room temperature (TPM: 2 uM RecA, 2 mM ATP, 1 mM DTT, 1 mg/mL BSA).
Series [2] concerns the target SSBΔC8 (Escherichia coli) (UniProt P0AGE0). Nature of the series: SPR. The settings on record: 10 mM Mg acetate, 3 mM K glutamate, pH 7.5, room temperature (TPM: 2 uM RecA, 2 mM ATP, 1 mM DTT, 1 mg/mL BSA).
Series [3] deals with wtSSB (Escherichia coli) (UniProt P0AGE0). Description: EMSA. The settings on record: Buffer 1: 25 mM Tris-HCl, 10 mM Mg acetate, 3 mM K glutamate, pH 7.5, room temperature (TPM: 2 uM RecA, 2 mM ATP, 1 mM DTT, 1 mg/mL BSA); buffer 2: 10 mM Tris …. Background: A gel shift assay detects complexes by their altered migration in electrophoresis.
In series [4] the target is SSBΔC8 (Escherichia coli) (UniProt P0AGE0). Description: EMSA. The settings on record: Buffer 1: 25 mM Tris-HCl, 10 mM Mg acetate, 3 mM K glutamate, pH 7.5, room temperature (TPM: 2 uM RecA, 2 mM ATP, 1 mM DTT, 1 mg/mL BSA); buffer 2: 10 mM Tris ….
Where [5] appears, read: buffer 1, 0.005% Tween-20, Buffer 1: 25 mM Tris-HCl, buffer 2: 10 mM Tris ….
[6] abbreviates: buffer 2 (10 mM Tris, 0.1 mM Na3EDTA, pH 8.1), 0.005% Tween-20, Buffer 1: 25 mM Tris-HCl.

55 nt ssDNA overhang (SPR): the dissociation constant (Kd) in series [1] (setting [5]) was 24 nM; in series [1] (setting [6]), 145 nM; in series [2] (setting [5]), 4.7 nM; in series [2] (setting [6]) it was 89.1 nM.

As to 55 nt ssDNA overhang (EMSA), the Kd worked out at 4.04 nM in series [3] and 13.9 nM in series [4].
